Experiment [1] has as its target beak and feather disease virus capsid (Cap) protein, residues 14-247 (beak and feather disease virus (BFDV)). In words: crystal structure; 60-mer co-crystallised with ssDNA oligonucleotides labelled with AlexaFluor488 and AlexaFluor647; space group F432.
The target is the same in experiment [2]. The experiment is described as follows: crystal structure; 10-mer crystals: 1.1 M ammonium sulfate, Tris pH 8.5, 0.1 M iron chloride, 290 K; space group P212121; no ssDNA.
The target is the same in experiment [3]. In words: crystal structure; 60-mer crystals: 0.8 M Na/K hydrogen phosphate pH 7.4, 290 K; space group F432; no ssDNA.

Our source for the stoichiometry N values is article PMC5059447.

As usually defined, the stoichiometry N is a count of units in the complex or per binding partner.

On to “beak and feather disease virus capsid (Cap) protein, residues 14-247 (domain or fragment)”, for which the stoichiometry N in experiment [1] is 60; in experiment [2] it was 10; in experiment [3], 60.
